From the DeepSol protein solubility set

Assay: soluble on expression in E. coli; label from the status in PepcDB or PDB records

Sequence | soluble on expression in E. coli
MTEIERKFLVATFPDGELHAVPLRQGYLTTPTDSIELRLRQQGTEYFMTLKSEGGLSRQEYEIQIDVTQFEMLWPATEGRRVEKTRYSGKLPDGQLFELDVFAGHLSPLMLVEVEFLSEDAAQAFIPPPWFGEEVTEDKRYKNKALALSIP | soluble
MQNEKTLRKIKKLLALSKSSNPHEAAKALEMAQKLMQENRINQVEIEFSQYHGKQKTAKKSARYVHQLVGVITRAFGVDAYMSNFYPDKDEAEEKMHVVFYGAEGRPEIASYCFDVLYRQLQTARKEFLATQSKRLKRSTLISRGDEFCQGWVFGVHENVKEFAMTPEEKGKLERYRYNGFKDLQTAKVRDAGETRDYGLALSQGYKQGSKVTLNHGVNGKETTKLGGDEMKENNGWIACNLGSA | not soluble
AHHHHHHGSRYVKLPKENTYEFLERLKDWGKLYAPVKISDKFYDFREIDDVRKIEFHYNRTIMPPKKFFFKPREKLFEFDISKPEYREVIEEVEPFIIFGVHACDIYGLKILDTVYLDEFPDKYYKVRREKGIIIGISCMPDEYCFCNLRETDFADDGFDLFFHELPDGWLVRVGTPTGHRLVDKNIKLFEEVTDKDICAFRDFEKRRQQAFKYHEDWGNLRYLLELEMEHPMWDEEADKCLACGICNTTCPTCRCYEVQDIVNLDGVTGYRERRWDSCQFRSHGLVAGGHNFRPTKKDRFRNRYLCKNAYNEKLGLSYCVGCGRCTAFCPANISFVGNLRRILGLEENKCPPTVSEEIPKRGFAYSSNIRGDGV | not soluble
MNRGVIVTGGGHGIGKQICLDFLEAGDKVCFIDIDEKRSADFAKERPNLFYFHGDVADPLTLKKFVEYAMEKLQRIDVLVNNACRGSKGILSSLLYEEFDYILSVGLKAPYELSRLCRDELIKNKGRIINIASTRAFQSEPDSEAYASAKGGIVALTHALAMSLGPDVLVNCIAPGWINVTEQQEFTQEDCAAIPAGKVGTPKDISNMVLFLCQQDFITGETIIVDGGMSKRMIYHGDWNWFYKIDK | soluble
MGSSHHHHHHSSGLVPRGSHMTATLGINGFGRIGRLVLRACMERNDITVVAINDPFMDVEYMAYLLKYDSVHGNFNGTVEVSGKDLCINGKVVKVFQAKDPAEIPWGASGAQIVCESTGVFTTEEKASLHLKGGAKKVIISAPPKDNVPMYVMGVNNTEYDPSKFNVISNASSTTNCLAPLAKIINDKFGIVEGLMTTVHSLTANQLTVDGPSKGGKDWRAGRCAGNNIIPASTGAAKAVGKVIPALNGKLTGMAIRVPTPDVSVVDLTCKLAKPASIEEIYQAVKEASNGPMKGIMGYTSDDVVSTDFIGCKYSSILDKNACIALNDSFVKLISWYDNESGYSNRLVDLAVYVASRGL | soluble
LSPLPRAYQWADGSAYLNHVELVRKARGAEVPASFYTDPLMYQGGSDAFLAPTADIPLRDEAWGLDFEGEVAVVTGDVPLGAPADAKYIRLLMLVNDVTLRGLIPPELAKGFGFFQSKPATAFSPVAVTPDELGDAWDGGKVHLPLLVDYNGAFYGKPDCGVEMQFSFPQLVAHVSKTRELVAGSIVGSGTISNKDRSVGSCCLAEQRMIETIEQGAPKTPFMKVGDTVRIEMRNAAGDSIFGAIEQTVVKHD | not soluble
MFKKFLSLCIVSTFSVAATSALAQPNQLVGKSSPQQLAPLMKAASGKGIKNQYIVVLKQPTTIMSNDLQAFQQFTQRSVNALANKHALEIKNVFDSALSGFSAELTAEQLQALRADPNVDYIEQNQIITVNPIISASANAAQDNVTWGIDRIDQRDLPLNRSYNYNYDGSGVTAYVIDTGIAFNHPEFGGRAKSGYDFIDNDNDASDCQGHGTHVAGTIGGAQYGVAKNVNLVGVRVLGCDGSGSTEAIARGIDWVAQNASGPSVANLSLGGGISQAMDQAVARLVQRGVTAVIAAGNDNKDACQVSPAREPSGITVGSTTNNDGRSNFSNWGNCVQIFAPGSDVTSASHKGGTTTMSGTSMASPHVAGVAALYLQENKNLSPNQIKTLLSDRSTKGKVSDTQGTPNKLLYSLTDNNTTPNPEPNPQPEPQPQPDSQLTNGKVVTGISGKQGELKKFYIDVPAGRRLSIETNGGTGNLDLYVRLGIEPEPFAWDCASYRNGNNEVCTFPNTREGRHFITLYGTTEFNNVSLVARY | not soluble
MEKRIVCLAGDGVGPEVMESAKEVLHMVERLYGHHFHLQDEHFGGVAIDLTGQPLPQRTLAACLASDAVLLGAVGGPRWDGAKERPEKGLLALRKGLGVFANVRPVTVESATAHLSPLKKADEIDFVVVRELTGGIYFSYPKERTDEVATDTLTYHRHEIERIVSCAFQLASKRKKKVTSIDKANVLESSKLWRIVTEEVALRYPDVELEHILVDAAAMELIRNPGRFDVIVTENLFGDILSDEASVLAGSLGMLPSASHAEKGPSLYEPIHGSAPDIAGKNKANPIAMMRSVAMMLGQSFGLTREGCAIEEAISAVLKSGKCTADIGGTETTTSFTKAVMQEMEEQALVGRGR | not soluble
MGSDKIHHHHHHMHGREAEDGVRSNPTGRQLRFGAELRKLREQAGLSATDAGQLLGIKQTQVSNMEAGRVGVSADRVRTLACHYECSDKALVEAIAAMTGDRTRGWWEEYREILPVGLLDLAELEHHATRLRTAVTVHIPGLFQTTEYAREIFRQAVPELPQPDVEHRVSFRIKRQAILFRDPPTPHQIIVHEAALRMRFGGSDVTRDQLKYLTAMNEREHISVQVIPFDTGVLPGSGQSIYYAEGPVPQLDTVNLDQSHGPVFLDAGAQLRKYRGLLDRMESAALSPEDSQKFIHTILKAL | not soluble
MSLLKADGMAKKQTLLVGERLVWDKLTLLGFLEKNHIPQKLYYNLSSQDKELSAEIQSNVTYYTLRDANNTLIQALIPISQDLQIHIYKKGEDYFLDFIPIVFTRKERTLLLSLQTSPYQDIVKATNDPLLANQLMNAYKKSVPFKRLVKNDKIAIVYTRDYRVGQAFGQPTIKMAMVSSRLHQYYLFSHSNGRYYDSKAQEVAGFLLETPVKYTRISSPFSYGRFHPVLKVKRPHYGVDYAAKHGSLIHSASDGRVGFIGVKAGYGKVVEIHLNELRLVYAHMSAFANGLKKGSFVKKGQIIGRVGSTGLSTGPHLHFGVYKNSRPINPLGYIRTAKSKLHGKQREVFLEKAQYSKQKLEELFKTHSFEKNSFYLLEGFEGHHHHHH | soluble
MAKNRFVRDVRLIASTSGDPIDAGQNGELLKSLYYQIAVHCIVLPPLRERKEDILPLAIHFIRQGNERYGLHVEGLGDDVQEAFLAYSWPGNVRELEAVILETMATMEQEQTITLAHLPAPFRAKLAPDETKTDFLFDTEDILPLDKYMEEVEIYYIRKALQHHGFNITKTAKALGLSRQNLQYRIRKYQIDKEWG | not soluble
EGKTSSASPNNPQELKRRVIEEGFRRAGIEFGGLKGNSLEALRQFGDPMMATVVGLSLGFKGDVVLAGGTQMLAVAAILKGLGEDLSRFMIATTRWVVEDKSATFIKTAREIGIISYAADLDFSKSEFKGLRDYEKGYVKEGVGAGGATWLAV | not soluble
MLRLIPNKGLKKTINTLTVAEKARINHQDIEELLLRYQRSCPEDAARNITEVTNPNQEKHEGLRVFVIQTWMALMVANSYGLETYQTLKTFMDRQGYKTQPDSTYMATEQKD | not soluble
MKKLMITQEAGVATVLIKNPPVNILTIDLINELNAFILSLKDDRETKVVVFKSFHEAFFIAHLDLNVINGTSGGQAASIEFNHMIANIKAMKQLSIAVVDGVARGGGNEFVMACDLAYGTENSAFAQPELYINIPTGGQGAVQFARRLGKGKALQALLTGADFTAQQAETLNIITQFVLKAELDVFLAQLLSVIVGWEIRDIVMYKEIIAASIKDEAVGTELELRYFLERAREEKTQTIIAAFLKHGGQTEREAKDMQGIFVDTAAELSK | not soluble
